Source: doi:10.1101/2021.09.20.461017 (bioRxiv, 2021)

Target: the molecule itself
Assay: crystal structure

B1: ClpP from Bacillus subtilis (BsClpP) (enzyme)
chain: not shown
  stoichiometry N: 14
